From PMC5779224, “Autoinhibition of ankyrin-B/G membrane target bindings by intrinsically disordered segments from the tail regions” (eLife, 2017)

Assays:
[1] = target: T1, AnkB_MBD (AnkB ANK repeats only, aa 28–827) (human, UniProt Q01484-2 28-827); experiment: ITC; VP-ITC MicroCal, 25 °C; proteins in 50 mM Tris-HCl pH 7.8, 1 mM DTT, 1 mM EDTA with 100 mM or 500 mM NaCl as required; who was titrated is not told; settings: both partners purified
T1 construct: ankyrin-B (AnkB), human 220 kDa isoform, residues 28-827: the 24 ANK repeats (MBD), no linker; numbers count on: human 220 kDa AnkB NM_020977.3; Poor quality in 100 mM NaCl buffer; also called AnkB 28–827; source: E. coli BL21 (DE3), purified (Ni2+-NTA, size exclusion)
T1 sequence (looked up): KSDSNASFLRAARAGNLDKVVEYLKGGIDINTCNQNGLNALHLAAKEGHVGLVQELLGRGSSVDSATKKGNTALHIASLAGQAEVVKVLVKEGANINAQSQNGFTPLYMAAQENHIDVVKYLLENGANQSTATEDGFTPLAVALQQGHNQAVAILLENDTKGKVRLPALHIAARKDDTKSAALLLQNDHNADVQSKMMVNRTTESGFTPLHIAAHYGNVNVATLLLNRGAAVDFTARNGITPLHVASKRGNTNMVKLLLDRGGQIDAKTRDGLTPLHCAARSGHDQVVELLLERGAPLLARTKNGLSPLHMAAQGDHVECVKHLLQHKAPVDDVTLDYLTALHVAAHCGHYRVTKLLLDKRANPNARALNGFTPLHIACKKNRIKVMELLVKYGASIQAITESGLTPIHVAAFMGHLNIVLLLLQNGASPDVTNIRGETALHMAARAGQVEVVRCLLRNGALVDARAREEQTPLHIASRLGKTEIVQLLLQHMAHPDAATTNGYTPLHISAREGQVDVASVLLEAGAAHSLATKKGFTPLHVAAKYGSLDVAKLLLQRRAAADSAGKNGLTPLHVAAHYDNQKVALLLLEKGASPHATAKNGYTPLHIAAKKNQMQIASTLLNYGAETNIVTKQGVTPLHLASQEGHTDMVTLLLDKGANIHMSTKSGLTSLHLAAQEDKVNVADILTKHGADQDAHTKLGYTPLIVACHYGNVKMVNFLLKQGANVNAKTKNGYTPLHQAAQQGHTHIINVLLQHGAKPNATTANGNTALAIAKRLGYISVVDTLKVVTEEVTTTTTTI

AnkB_MBD Asn595Ala = target: T2, AnkB_MBD Asn595Ala (human, UniProt Q01484-2 28-827, Asn595Ala); experiment: as above; settings: both partners purified
T2 construct: ankyrin-B (AnkB), human 220 kDa isoform, MBD 28-827 with N595A in a finger loop; numbers count on: human 220 kDa AnkB NM_020977.3; source: E. coli BL21 (DE3), purified (Ni2+-NTA, size exclusion)
T2 sequence (looked up): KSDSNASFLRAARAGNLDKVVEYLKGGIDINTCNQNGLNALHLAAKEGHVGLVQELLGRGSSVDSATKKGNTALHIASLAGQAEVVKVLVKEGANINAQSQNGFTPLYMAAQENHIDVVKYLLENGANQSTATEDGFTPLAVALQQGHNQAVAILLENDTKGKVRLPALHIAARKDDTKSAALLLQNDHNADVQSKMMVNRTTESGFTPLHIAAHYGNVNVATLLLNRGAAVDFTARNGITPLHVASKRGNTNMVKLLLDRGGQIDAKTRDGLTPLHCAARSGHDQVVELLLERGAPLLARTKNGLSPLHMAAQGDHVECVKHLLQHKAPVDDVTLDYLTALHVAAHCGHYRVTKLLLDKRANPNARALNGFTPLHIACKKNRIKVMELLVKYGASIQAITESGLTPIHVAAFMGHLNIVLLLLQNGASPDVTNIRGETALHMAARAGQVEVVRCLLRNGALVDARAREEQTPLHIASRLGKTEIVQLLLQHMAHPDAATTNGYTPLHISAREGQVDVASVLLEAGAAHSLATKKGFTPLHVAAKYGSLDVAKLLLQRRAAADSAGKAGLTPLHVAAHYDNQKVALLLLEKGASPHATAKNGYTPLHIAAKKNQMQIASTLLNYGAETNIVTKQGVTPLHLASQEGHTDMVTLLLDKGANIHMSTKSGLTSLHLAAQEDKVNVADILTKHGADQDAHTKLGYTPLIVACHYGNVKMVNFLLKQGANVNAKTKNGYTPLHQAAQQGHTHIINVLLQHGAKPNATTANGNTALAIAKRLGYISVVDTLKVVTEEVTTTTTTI

B1: AnkB_AI-c (aa 828–852) (domain or fragment, human, UniProt Q01484-2 828-852, looked up)
chain: TEKHKLNVPETMTEVLDVSDEEGDD
notes: numbers count on: human 220 kDa AnkB NM_020977.3; source: E. coli BL21 (DE3), purified (Ni2+-NTA, size exclusion)
binding result [1]: binds | binding result (AnkB_MBD Asn595Ala): binds
